# Source: paper PMC8097376 (EMBO Reports, 2021)
# B1: nanobody NM1226 (VHH)
# VHH: QVQLVESGGGSVQPGGSLRLSCLGSGSLDYYAIGWFRQAPGKEREGVSCIASSGDRTIYADSVKGRFTISRDYGKNTVYLQMNSLKPEDTAMYYCAALQGSYYYTGFVANEYDYWGQGAPVTVSS
# What was measured:
# [1] = target: T1, RBD mutant derived from SARS-CoV-2 strain B.1.351 (South Africa) (SARS-CoV-2, B.1.351 (RBD K417N, E484K, …, K417N | E484K | N501Y)); experiment: BLI; details: both partners purified
# T1 construct: also called RBD_(B.1.351); source: Expi293 cells, purified
# [2] = target: T2, RBD mutant derived from SARS-CoV-2 strain B.1.1.7 (UK) (SARS-CoV-2, B.1.1.7 (RBD N501Y), N501Y); experiment: BLI; details: both partners purified
# T2 construct: also called RBD_(B.1.1.7); source: Expi293 cells, purified
binder,measurement,setting,value
B1,Kd,[1],~5.5 nM
same,Kd,[2],~5.4 nM
